The target of the experiment is T1, monkey serum albumin (monkey).
T1 construct: also called Monkey SA
Briefly: SPR (BioRad ProteOn XPR36), albumin amine-coupled to GLC chip, analyte from 5 nM in 3-fold dilutions, 25 C. As for the experimental part: All studies were conducted on a BioRad ProteOn XPR36 system using a GLC sensor chip at 25 degrees C. For amine coupling the GLC chip was activated for 5 minutes using a 1:1 mixture of sulfo-NHS/EDC diluted 30-fold from the initial stock in water as shown below. Each albumin sample was diluted to 25 ug/ml in 10 mM Na Acetate pH 5.0 and injected for 5 minutes over separate sensor surfaces. Each surface was then blocked with 1 M ethanolamine pH 8.5. Each albumin was coupled at a density of 2000-5000 in resonance units.
The binding of an engineered polypeptide was tested using 5 nM as the highest concentration in a three-fold dilution series. The running buffer contained 10 mM HEPES pH 7.4, 150 mM NaCl, 3 mM EDTA and 0.005% tween-20. All samples were tested using a 3-fold dilution series. Each concentration series was tested in duplicate. The dissociation phase for the highest concentration […] was monitored for 3 hours.

T1 sequence (Q28522 17-600): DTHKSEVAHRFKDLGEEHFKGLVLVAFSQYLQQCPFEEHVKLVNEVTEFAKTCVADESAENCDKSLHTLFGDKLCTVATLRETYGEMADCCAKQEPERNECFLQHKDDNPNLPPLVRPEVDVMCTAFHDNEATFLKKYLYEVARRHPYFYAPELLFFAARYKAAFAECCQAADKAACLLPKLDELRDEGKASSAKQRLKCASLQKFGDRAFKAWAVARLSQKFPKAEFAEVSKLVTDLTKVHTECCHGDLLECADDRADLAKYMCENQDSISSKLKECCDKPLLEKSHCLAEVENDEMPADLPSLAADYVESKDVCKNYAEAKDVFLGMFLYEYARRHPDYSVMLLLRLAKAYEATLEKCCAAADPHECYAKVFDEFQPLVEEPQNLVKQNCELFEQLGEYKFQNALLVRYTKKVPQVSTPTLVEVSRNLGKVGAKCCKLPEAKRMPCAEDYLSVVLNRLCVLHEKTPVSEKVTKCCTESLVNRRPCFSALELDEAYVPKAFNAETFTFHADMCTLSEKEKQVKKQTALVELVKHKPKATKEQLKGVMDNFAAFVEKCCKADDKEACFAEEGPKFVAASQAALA

B1: PEP07986-neutral linker-A500 (Compound 2) (other)
chain: MGSLAEAKEAANAELDSYGVSDFYKRLIDKAKTVEGVEALKDAILAALPTGGGGSGGGSGGGSGGGSASVPIQKVQDDTKTLIKTIVTRINDISHTQSVSSKQKVTGLEFIPGLHPILTLSKMDQTLAVYQQILTSMPSRNVIQISNDLENLRDLLHVLAFSKSCHLPQASGLETLESLGGVLEASGYSTEVVALSRLQGSLQDMLQQLDLSPGC
notes: also called Cmpd 2; PEP07986-Neutral-A500
As to B1, the Kd (commonly the equilibrium constant for the complex coming apart) stood at 0.405 nM.

B2: PEP07986-negative linker-A500 (Compound 12) (other)
chain: MGSLAEAKEAANAELDSYGVSDFYKRLIDKAKTVEGVEALKDAILAALPTGGEGGEGGEGGEGGEGGEASVPIQKVQDDTKTLIKTIVTRINDISHTQSVSSKQKVTGLEFIPGLHPILTLSKMDQTLAVYQQILTSMPSRNVIQISNDLENLRDLLHVLAFSKSCHLPQASGLETLESLGGVLEASGYSTEVVALSRLQGSLQDMLQQLDLSPGC
notes: also called Cmpd 12; PEP07986-Negative-A500
B2 came in with a Kd of 0.4 nM.
